Test results reported in US20140086829A1 (BIOREC S A, published 2014).

Assays:
human GST-VEGF [1] = target: T1, human GST-VEGF (human, UniProt P15692-9 27-147); experiment: competition ELISA on coated GST-VEGF; soluble scFv 2H1 titrated; competitor phage scFv 3E12
T1 construct: also called GST-VEGF humano; not shown: GST fusion partner
T1 sequence (looked up): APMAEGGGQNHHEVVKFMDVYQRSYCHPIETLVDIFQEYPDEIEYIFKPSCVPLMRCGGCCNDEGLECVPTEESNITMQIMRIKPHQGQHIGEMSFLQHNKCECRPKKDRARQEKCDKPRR

human GST-VEGF [2] = target: T1, human GST-VEGF; experiment: competition ELISA on coated GST-VEGF; soluble scFv 2H1 titrated; competitor phage scFv 1B1
human GST-VEGF [3] = target: T1, human GST-VEGF; experiment: competition ELISA on coated GST-VEGF; soluble scFv 2H1 titrated; competitor phage scFv 3E1
human GST-VEGF [4] = target: T1, human GST-VEGF; experiment: competition ELISA on coated GST-VEGF; soluble scFv 2H1 titrated; competitor phage scFv 3E4
human GST-VEGF [5] = target: T1, human GST-VEGF; experiment: competition ELISA on coated GST-VEGF; soluble scFv 2H1 titrated; competitor phage scFv 4F2
human GST-VEGF [6] = target: T1, human GST-VEGF; experiment: competition ELISA on coated GST-VEGF; soluble scFv 2H1 titrated; competitor phage scFv 2F6
human GST-VEGF [7] = target: T1, human GST-VEGF; experiment: competition ELISA on coated GST-VEGF; soluble scFv 2H1 titrated; competitor phage scFv 2H1 original
human GST-VEGF [8] = target: T1, human GST-VEGF; experiment: competition ELISA on coated GST-VEGF; soluble scFv 2H1 titrated; competitor phage scFv 2D1O
human GST-VEGF [9] = target: T1, human GST-VEGF; experiment: competition ELISA on coated GST-VEGF; soluble scFv 2H1 titrated; competitor phage scFv L3
human GST-VEGF [10] = target: T1, human GST-VEGF; experiment: competition ELISA on coated GST-VEGF; soluble scFv 2H1 titrated; competitor phage scFv 2F5
human GST-VEGF [11] = target: T1, human GST-VEGF; experiment: competition ELISA on coated GST-VEGF; soluble scFv 2H1 titrated; competitor phage scFv 1H2
human GST-VEGF [12] = target: T1, human GST-VEGF; experiment: competition ELISA on coated GST-VEGF; soluble scFv 2H1 titrated; competitor phage scFv 1H3
P64K-VEGFKDR- (human) = P64K-VEGFKDR- (human) (UniProt P15692); experiment: ELISA; antigen coated 1 µg/ml; scFv 10 µg/mL; 9E10-peroxidase
human GST-VEGF [13] = target: T1, human GST-VEGF; experiment: competition ELISA on coated GST-VEGF; soluble scFv 2H1 titrated; competitor phage scFv 3F3
human GST-VEGF [14] = target: T1, human GST-VEGF; experiment: competition ELISA on coated GST-VEGF; soluble scFv 2H1 titrated; competitor phage scFv 3E5
mouse VEGF (Peprotech) = target: T2, mouse VEGF (Peprotech) (mouse, UniProt Q00731-2 27-190, limits assumed); experiment: ELISA; antigen coated 1 µg/ml; scFv 10 µg/mL; 9E10-peroxidase
T2 construct: also called Mouse VEGF-A
T2 sequence (looked up): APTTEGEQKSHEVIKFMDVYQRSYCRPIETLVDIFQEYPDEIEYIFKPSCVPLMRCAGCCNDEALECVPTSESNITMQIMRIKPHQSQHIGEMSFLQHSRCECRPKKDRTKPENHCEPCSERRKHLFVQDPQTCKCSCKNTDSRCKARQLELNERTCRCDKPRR

[15] = target: T3, isoform 121 of human VEGF-A (Peprotech) (human, UniProt P15692-9 27-147); experiment: as above
T3 construct: also called human VEGF121; VEGF 121
T3 sequence (looked up): T1 sequence (looked up)

[16] = target: T4, isoform 165 of human VEGF-A (Peprotech) (human, UniProt P15692-4 27-191); experiment: as above
T4 construct: also called human VEGF165; VEGF 165
T4 sequence (P15692 other isoform, or with tags, fused parts or gaps limits assumed): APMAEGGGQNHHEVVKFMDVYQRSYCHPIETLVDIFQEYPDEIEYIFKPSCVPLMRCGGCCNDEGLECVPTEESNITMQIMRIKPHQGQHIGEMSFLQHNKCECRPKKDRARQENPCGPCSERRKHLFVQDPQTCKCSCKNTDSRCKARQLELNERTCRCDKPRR

human GST-VEGF [17] = target: T1, human GST-VEGF; experiment: competition ELISA on coated GST-VEGF; soluble scFv 2H1 titrated; competitor phage scFv 3E2
human GST-VEGF [18] = target: T1, human GST-VEGF; experiment: competition ELISA on coated GST-VEGF; soluble scFv 2H1 titrated; competitor phage scFv 1H2; remark: listed apart in the source
human GST-VEGF [19] = target: T1, human GST-VEGF; experiment: competition ELISA on coated GST-VEGF; soluble scFv 2H1 titrated; competitor phage scFv 3H2
human GST-VEGF [20] = target: T1, human GST-VEGF; experiment: competition ELISA on coated GST-VEGF; soluble scFv 2H1 titrated; competitor phage scFv 3E3
human GST-VEGF [21] = target: T1, human GST-VEGF; experiment: competition ELISA on coated GST-VEGF; soluble scFv 2H1 titrated; competitor phage scFv 2A10
human GST-VEGF [22] = target: T1, human GST-VEGF; experiment: competition ELISA on coated GST-VEGF; soluble scFv 2H1 titrated; competitor phage scFv 1B1; remark: listed apart in the source
human GST-VEGF [23] = target: T1, human GST-VEGF; experiment: competition ELISA on coated GST-VEGF; soluble scFv 2H1 titrated; competitor phage scFv L2

B1: soluble scFv 2H1 antibody fragment (scFv, from another filing)
scFv: QQVQLVQSGAEVKKPGESLKISCKGSGYSFTSYWIGWVRQMPGKGLEWMGIIYPGDSDTRYSPSFQGQVTISADKSISTAYLQWSSLKASDTAMYYCARLVVRDTEIWGQGTMVTVSSAPQAKSSGSGSESKVDQAVVTQEPSLTVSPGGTVTLTCASSIGAVTSGNYPNWFQQRPGQPPRALIYSTSNKHSWTPARFSGSLLGGKAALTLSGAQPEDEAEYYCLLSYSGARPVFGGGTKLTVLGAAAGSEQKLISEEDLNSHHHHHH
For B1, the IC50 (human GST-VEGF [1]) was 18.3 mg/L, the IC50 (human GST-VEGF [2]) was 151 mg/L and the IC50 (human GST-VEGF [3]) was 21.2 mg/L. The IC50 (human GST-VEGF [4]) was 13.5 mg/L, the IC50 (human GST-VEGF [5]) was 4.98 mg/L and the IC50 (human GST-VEGF [6]) was 115 mg/L. It also gave an IC50 (human GST-VEGF [7]) of 5.08 mg/L, an IC50 (human GST-VEGF [8]) of 65.7 mg/L and an IC50 (human GST-VEGF [9]) of 350 mg/L. For the same binder, the IC50 (human GST-VEGF [10]) was 4.21 mg/L, the IC50 (human GST-VEGF [11]) was 120 mg/L and the IC50 (human GST-VEGF [12]) was 110 mg/L. It also gave an absorbance at 492 nm (P64K-VEGFKDR- (human)) of 0.764, an IC50 (human GST-VEGF [13]) of 49.7 mg/L and an IC50 (human GST-VEGF [14]) of 9.06 mg/L. The absorbance at 492 nm (mouse VEGF (Peprotech)) was 0.09, the absorbance at 492 nm [15] was 0.691 and the absorbance at 492 nm [16] was 0.665. For the same binder, the IC50 (human GST-VEGF [17]) was 15.3 mg/L, the IC50 (human GST-VEGF [18]) was 124 mg/L and the IC50 (human GST-VEGF [19]) was 19.6 mg/L. It also gave an IC50 (human GST-VEGF [20]) of 34.6 mg/L, an IC50 (human GST-VEGF [21]) of 35.8 mg/L and an IC50 (human GST-VEGF [22]) of 149 mg/L. It also gave an IC50 (human GST-VEGF [23]) of 126 mg/L.
